Earlier results, collected in US8623606B2, “Screening method for GPCR ligands” (Max-Planck-Gesellschaft zur Forderung der wissenschaften …, priority 2006, dated 2014).
Read-outs that look alike come from different tables or passages of the source.

Assays:
[1] = biological target: T1, CRF1 receptor (Homo sapiens, UniProt P34998)
T1 sequence (P34998 24-415): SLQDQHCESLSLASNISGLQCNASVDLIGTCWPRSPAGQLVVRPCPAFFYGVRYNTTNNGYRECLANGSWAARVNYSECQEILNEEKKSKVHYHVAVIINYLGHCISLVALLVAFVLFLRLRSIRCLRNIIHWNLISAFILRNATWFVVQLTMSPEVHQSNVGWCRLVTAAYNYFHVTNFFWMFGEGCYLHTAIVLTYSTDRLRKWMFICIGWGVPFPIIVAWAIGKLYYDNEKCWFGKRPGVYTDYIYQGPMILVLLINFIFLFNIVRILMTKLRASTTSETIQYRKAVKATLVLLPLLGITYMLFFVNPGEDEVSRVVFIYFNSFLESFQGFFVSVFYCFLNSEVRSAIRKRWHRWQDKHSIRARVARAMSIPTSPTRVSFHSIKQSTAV

[2] = biological target: T1, CRF1 receptor; remark: listed apart in the source
[3] = test system: CRF R1; details: FIG. 2A legend

Substance	influence on the J-domain signaling [1]	binding to the CRF1 receptor (in words) ([2]; FIG. 2B legend)	Kd ([2]; as reported in Yamada et al., read-out: binding constant to the N-terminal domain) [nM]	Kd ([2]; literature value, read-out: affinity of binding to the CRF1 receptor) [nM]	CRF R1 activation potency (testosterone production) [3]
Ac-E*AEK*NRLXDII-CONH2 [12 amino acid analog of astressin]	devoid of any detectable influence	binds tightly	5	5.5	
Ucn1-19: N-terminal activation domain from the CRF R1 agonist rat urocortin (DDPPLSIDLTFHLLRTLLEIE; listed as Homo sapiens)					Neither of the isolated domains is active alone
consensus peptide derived from the C-terminus of CRF R1 antagonists: consensus peptide derived from the C-terminus of CRF R1 antagonists (NRKLLDEV; listed as Homo sapiens)					Neither of the isolated domains is active alone
